The text below walks through data of patent publication US20250313621A1.

One may read the EC50 as the concentration at which the effect is half-maximal.

The target in experiment [1] is Wildtype human PAR 1 (human) (UniProt P25116). The experiment in a line: cell-based or functional assay.
Experiment [2] concerns the target Wildtype human PAR2 expressed on cells (human) (UniProt P55085). The experiment in a line: cell-based or functional assay.
Experiment [3] deals with V5His-huPAR2 on Flp-In CHO cells (human) (UniProt P55085). The experiment in a line: FACS titration on CHO_V5HIS-huPAR2 cells versus CHO parental cells (flat), RLU, axis Ab [nM].
V5His-huPAR2 on Flp-In CHO cells (human), sequence (P55085 37-397 limits assumed): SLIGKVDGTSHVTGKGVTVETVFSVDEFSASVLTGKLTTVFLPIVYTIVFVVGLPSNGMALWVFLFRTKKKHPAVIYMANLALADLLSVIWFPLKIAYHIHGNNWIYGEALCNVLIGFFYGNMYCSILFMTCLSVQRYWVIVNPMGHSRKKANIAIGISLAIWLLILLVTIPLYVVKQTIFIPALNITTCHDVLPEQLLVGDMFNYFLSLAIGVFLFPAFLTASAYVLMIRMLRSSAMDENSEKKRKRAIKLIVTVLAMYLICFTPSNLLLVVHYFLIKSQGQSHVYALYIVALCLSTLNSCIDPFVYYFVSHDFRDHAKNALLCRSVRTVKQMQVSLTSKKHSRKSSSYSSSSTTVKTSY

Wildtype human PAR 1 (human), sequence (P25116 42-425 limits assumed): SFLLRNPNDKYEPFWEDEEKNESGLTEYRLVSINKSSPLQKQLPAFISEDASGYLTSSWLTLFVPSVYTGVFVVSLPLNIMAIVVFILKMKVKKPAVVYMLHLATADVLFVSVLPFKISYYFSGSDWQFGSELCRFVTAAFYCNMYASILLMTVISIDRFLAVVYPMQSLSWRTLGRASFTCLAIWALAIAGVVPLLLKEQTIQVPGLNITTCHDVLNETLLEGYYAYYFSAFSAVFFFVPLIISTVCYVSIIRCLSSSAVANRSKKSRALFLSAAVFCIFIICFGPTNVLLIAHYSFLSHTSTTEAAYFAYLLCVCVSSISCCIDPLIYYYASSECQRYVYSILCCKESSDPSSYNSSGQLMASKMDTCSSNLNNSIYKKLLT
Wildtype human PAR2 expressed on cells (human), sequence (P55085 37-397 limits assumed): as the sequence (P55085 37-397 limits assumed) above

In the case of MAB3949 (antibody), in experiment [1], the Human PAR1 SFLLR IC50, IP-One is more than 1000 nM and the SFLLR fold inhibition, human PAR1, IP-One was determined as 0 fold. In experiment [2], this substance yielded a % Max Inhibition, AP challenge, IP-One of 100% and a % Max Inhibition, Bovine Trypsin challenge, IP-One of 0%. Also, in experiment [3], the EC50 was found to be 6.8 nM.
